Measured values: US20040138440A1, “Aspergillus fumigatus cofilin” (priority 2004, published 2004)

Biological target: T1, preassembled pyrene-actin filaments (Gallus gallus, UniProt P68139)
T1 construct: Mince 2 kg of fresh, boneless, skinless chicken breast in a pre-chilled meat grinder; from tissue; host or cells: chicken breast (skeletal) muscle, via acetone powder
Test: pyrene actin assay (decrease in fluorescence of filamentous pyrene-actin on addition of cofilin)
Type: biochemical, chicken
Conditions: addition of stoichiometric amounts of cofilin to preassembled pyrene-actin filaments; FIG. 3
Description: The effect of cofilin on preassembled pyrene-actin filaments is monitored. Two cofilin activities—binding to actin polymer and enhancing depolymerization—combine to reduce the relative fluorescence intensity. Addition of stoichiometric amounts of cofilin results in a 3-5 fold reduction in fluorescence intensity. In both these assays, any inhibitor will result in an increase in relative fluorescence intensity. For both graphs, the x-axes show cycle number (1 cycle/30 sec) and the y-axes reflect fluorescence in arbitrary units..
Assays for the interaction of A. fumigatus cofilin and any other cofilin with actin in 384-well plates using a fluorescence as the detection means have been developed. […]
Upon addition of cofilin to filamentous pyrene-actin, two well-characterized biochemical activities can be monitored. First, cofilin binds to the filaments and partially quenches the pyrene fluorescence. Second, it induces filament disassembly, further decreasing pyrene fluorescence. The decrease in fluorescence that results when cofilin is added to filamentous actin is monitored (FIG. 3). An inhibitor of the interaction of cofilin with pyrene-actin will result in an increase in fluorescence. […]
Thaw Actin, Pyrene-Actin and Cofilin pellets on ice or at room temp. […] Take readings at OD290. […]
Add 25 ul of sample into each well. […] Take Pyrene-Kinetic readings (Fluorostar setting) at 150 cycles, 360 to […].

B1: A. fumigatus cofilin: proteins or polypeptides present in A. fumigatus that are capable of binding actin; amino acid sequence SEQ ID NO:2; expressed in E. coli (protein, listed as Aspergillus fumigatus)
chain: MALASGVSIADECITAFNDFRMSGNKANKTKFIIFKIADNKKEVVIDEVSQEEDYEVFRSRLEATKDSKGNPAPRYAVYDVEYDLGGGEGKRSKIVFISWVPSDTPTLWSMIYASTRENLKNALNIHTSIHADDKGDIEWKTVLAEASGGKAGK
modifications: Cofilin sequence
notes: expressed in E. coli
  reduction in fluorescence intensity: 3-5 fold
